From IntAct's records for PubMed 31515488 come the findings set out here.

B1: Peroxisomal bifunctional enzyme (Homo sapiens), Q08426 (parent)
chain: MAEYTRLHNALALIRLRNPPVNAISTTLLRDIKEGLQKAVIDHTIKAIVICGAEGKFSAGADIRGFSAPRTFGLTLGHVVDEIQRNEKPVVAAIQGMAFGGGLELALGCHYRIAHAEAQVGLPEVTLGLLPGARGTQLLPRLTGVPAALDLITSGRRILADEALKLGILDKVVNSDPVEEAIRFAQRVSDQPLESRRLCNKPIQSLPNMDSIFSEALLKMRRQHPGCLAQEACVRAVQAAVQYPYEVGIKKEEELFLYLLQSGQARALQYAFFAERKANKWSTPSGASWKTASARPVSSVGVVGLGTMGRGIVISFARARIPVIAVDSDKNQLATANKMITSVLEKEASKMQQSGHPWSGPKPRLTSSVKELGGVDLVIEAVFEEMSLKKQVFAELSAVCKPEAFLCTNTSALDVDEIASSTDRPHLVIGTHFFSPAHVMKLLEVIPSQYSSPTTIATVMNLSKKIKKIGVVVGNCFGFVGNRMLNPYYNQAYFLLEEGSKPEEVDQVLEEFGFKMGPFRVSDLAGLDVGWKSRKGQGLTGPTLLPGTPARKRGNRRYCPIPDVLCELGRFGQKTGKGWYQYDKPLGRIHKPDPWLSKFLSRYRKTHHIEPRTISQDEILERCLYSLINEAFRILGEGIAASPEHIDVVYLHGYGWPRHKGGPMFYASTVGLPTVLEKLQKYYRQNPDIPQLEPSDYLKKLASQGNPPLKEWQSLAGSPSSKL
partner: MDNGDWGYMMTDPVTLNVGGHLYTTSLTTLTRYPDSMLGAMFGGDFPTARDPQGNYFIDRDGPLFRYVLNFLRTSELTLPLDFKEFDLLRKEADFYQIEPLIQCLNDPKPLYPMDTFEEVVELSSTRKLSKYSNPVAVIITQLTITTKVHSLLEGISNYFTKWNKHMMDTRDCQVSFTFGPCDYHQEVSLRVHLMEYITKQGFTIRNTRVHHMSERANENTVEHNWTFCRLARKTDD
B2: Coiled-coil domain-containing protein 172 (Homo sapiens), P0C7W6 (parent)
chain: MSLESLFQHIIFTEHQAEESRRLMREVRSEITRCREKIKKATEELNEEKIKLESKVQQFFEKSFFLQLLKAHENALEKQYSEITNHRNMLLQTFEAIKKQMIEEEDKFIKEITDFNNDYEITKKRELLMKENVKIEISDLENQANMLKSEMKSMEHDSSQLNELQKQKSELIQELFTLQRKLKVFEDEENESICTTKYLEAEKIKISEKPQNDTECLRLKKELELYKEDDMESVYEALQTEIEFLELTLAQKDLQESK
partner: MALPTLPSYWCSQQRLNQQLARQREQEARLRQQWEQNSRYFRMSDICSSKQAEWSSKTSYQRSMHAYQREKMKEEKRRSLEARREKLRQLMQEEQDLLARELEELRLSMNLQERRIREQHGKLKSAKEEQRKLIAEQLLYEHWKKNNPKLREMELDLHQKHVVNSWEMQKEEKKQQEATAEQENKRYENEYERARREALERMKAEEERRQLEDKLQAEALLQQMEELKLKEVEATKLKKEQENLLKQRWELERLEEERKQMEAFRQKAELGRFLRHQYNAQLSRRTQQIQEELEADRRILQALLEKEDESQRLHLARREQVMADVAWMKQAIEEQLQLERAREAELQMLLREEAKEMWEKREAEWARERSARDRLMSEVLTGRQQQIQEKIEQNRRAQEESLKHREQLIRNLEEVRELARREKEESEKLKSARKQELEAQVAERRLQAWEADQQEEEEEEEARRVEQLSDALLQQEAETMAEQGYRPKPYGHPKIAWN
B3: Embryonal Fyn-associated substrate (Homo sapiens), O43281 (parent)
chain: MAIATSTQLARALYDNTAESPQELSFRRGDVLRVLQREGAGGLDGWCLCSLHGQQGIVPANRVKLLPAGPAPKPSLSPASPAQPGSPYPAPDHSNEDQEVYVVPPPARPCPTSGPPAGPCPPSPDLIYKIPRASGTQLAAPRDALEVYDVPPTALRVPSSGPYDCPASFSHPLTRVAPQPPGEDDAPYDVPLTPKPPAELEPDLEWEGGREPGPPIYAAPSNLKRASALLNLYEAPEELLADGEGGGTDEGIYDVPLLGPEAPPSPEPPGALASHDQDTLAQLLARSPPPPHRPRLPSAESLSRRPLPALPVPEAPSPSPVPSPAPGRKGSIQDRPLPPPPPRLPGYGGPKVEGDPEGREMEDDPAGHHNEYEGIPMAEEYDYVHLKGMDKAQGSRPPDQACTGDPELPERGMPAPQEALSPGEPLVVSTGDLQLLYFYAGQCQSHYSALQAAVAALMSSTQANQPPRLFVPHSKRVVVAAHRLVFVGDTLGRLAASAPLRAQVRAAGTALGQALRATVLAVKGAALGYPSSPAIQEMVQCVTELAGQALQFTTLLTSLAP

Variants of B1 are the subject of one assay. The conditions noted are these: with kctd6_human KCTD6, Q8NC69.
For the variant R483Q, the “effect of a mutation on the interaction” value was “disrupting interaction strength”.

As to S703F, the “effect of a mutation on the interaction” value was “with no effect”.

L715S: the “effect of a mutation on the interaction” value is “disrupting interaction strength”.

Another assay covers variants of B2. The conditions noted are these: with tchp_human TCHP.
As for I10V, the “effect of a mutation on the interaction” value was “with no effect”.

Variants of B3 are the subject of the next assay. The conditions noted are these: with blk_human BLK.
S265F: the “effect of a mutation on the interaction” value was “with no effect”.

As to A140D, the “effect of a mutation on the interaction” value is recorded as “with no effect”.

Variants of B3 are the subject of the next assay. Particulars: with nck2_human NCK2, O43639.
nck2_human NCK2, O43639, sequence (O43639 whole entry): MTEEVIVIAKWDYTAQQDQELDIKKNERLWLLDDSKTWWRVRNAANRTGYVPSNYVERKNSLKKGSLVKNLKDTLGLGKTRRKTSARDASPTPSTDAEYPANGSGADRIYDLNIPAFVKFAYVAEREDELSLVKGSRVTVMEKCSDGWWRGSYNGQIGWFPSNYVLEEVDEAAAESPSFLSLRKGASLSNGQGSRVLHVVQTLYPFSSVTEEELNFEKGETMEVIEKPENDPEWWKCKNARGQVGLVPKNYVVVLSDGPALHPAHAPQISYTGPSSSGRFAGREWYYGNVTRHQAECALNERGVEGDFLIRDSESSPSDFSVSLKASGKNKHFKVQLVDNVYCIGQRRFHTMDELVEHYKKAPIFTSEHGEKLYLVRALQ
Consider S265F, for which the “effect of a mutation on the interaction” value is recorded as “with no effect”.

Turning to A140D, the “effect of a mutation on the interaction” value is recorded as “with no effect”.

In the next assay the parent is B3. The conditions noted are these: with abi2_human ABI2, Q9NYB9.
abi2_human ABI2, Q9NYB9, sequence (Q9NYB9 whole entry): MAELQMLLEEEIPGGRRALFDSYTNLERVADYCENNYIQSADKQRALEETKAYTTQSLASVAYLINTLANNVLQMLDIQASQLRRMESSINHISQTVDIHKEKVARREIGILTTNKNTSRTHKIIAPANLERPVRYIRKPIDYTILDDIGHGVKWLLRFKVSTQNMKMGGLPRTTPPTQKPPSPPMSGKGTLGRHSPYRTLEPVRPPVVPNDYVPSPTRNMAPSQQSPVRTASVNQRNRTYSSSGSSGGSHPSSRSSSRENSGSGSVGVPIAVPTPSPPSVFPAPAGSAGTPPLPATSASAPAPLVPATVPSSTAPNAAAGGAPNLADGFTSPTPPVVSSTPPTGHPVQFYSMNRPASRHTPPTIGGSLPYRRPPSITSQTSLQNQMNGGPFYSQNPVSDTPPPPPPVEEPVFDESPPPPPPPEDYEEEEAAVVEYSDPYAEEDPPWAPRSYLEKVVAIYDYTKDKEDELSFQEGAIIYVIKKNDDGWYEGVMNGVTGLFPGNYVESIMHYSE
Take S265F: the “effect of a mutation on the interaction” value is reported as “with no effect”.

On to A140D, for which the “effect of a mutation on the interaction” value was “with no effect”.

Variants of B3 are the subject of another assay. The conditions noted are these: with fyn_human FYN.
Turning to S265F, the “effect of a mutation on the interaction” value is “with no effect”.

For the variant A140D, the “effect of a mutation on the interaction” value is given as “with no effect”.
